Reference: patent publication US20250136701A1 (GO THERAPEUTICS, published 2025)

T1: cMET-Tn peptide PTKSFISGGSTITGVGKNLN, glycosylated with GalNAc on the serine and threonine residues (O-linked GalNAc on the serine at position 10 and the threonine at position 11; N-terminal biotin in the form described for Biacore and Octet)
T1 construct: Synthetic 20-residue glycopeptide of cMET; GalNAc sites not given; also called Tn-glycosylated cMET peptide; cMET glycopeptide
T1 peptide: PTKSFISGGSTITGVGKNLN


Tests used:
[1] = biological target: T1, cMET-Tn peptide PTKSFISGGSTITGVGKNLN, …; assay: SPR (Biacore), antibody immobilised, peptide as analyte
Text: Antibody affinity assays can be carried out using surface plasmon resonance (e.g., using a Biacore system (Cytiva)). In a surface plasmon resonance assay, one or more antibodies can be immobilized onto a biosensor and presented with an analyte (e.g., the cMET-Tn peptide Biotin-[…] (the amino acid portion of which is SEQ ID NO: 285; bold and underlined residues indicate GalNAc glycosylation sites) or a negative control analyte such as an unglycosylated cMET peptide (Biotin-[…] (the amino acid portion of which is SEQ ID NO:286)). The antibodies are contacted with different concentrations of the analyte, for example concentrations of 2.5 nM, 7.4 nM, 22 nM, 66 nM and 200 nM. Affininty is measured using multi-cycle kinetics in triplicate for each analyte concentration, with 1 min association and 5 min dissociation. […] The affinity is determined by fitting the binding curve to a specific model: kinetic fit (1:1 model) or if applicable heterogenous ligand binding model. The error (>95% confidence) was calculated by how close the generated curve matches the model.

[2] = biological target: T1, cMET-Tn peptide PTKSFISGGSTITGVGKNLN, …; assay: BLI (Octet), peptide on biosensor, apparent affinity
[3] = biological target: T2, MUC1-Tn; assay: as above
T2 construct: Specificity control in the Biacore and Octet assays

Binder | Kd [1] | Kd [2] | Kd [3]
15C4.1D8.1G2 (antibody, V domains shown, Mouse monoclonal antibody from a hybridoma (Balb/c mice immunised with the KLH-conjugated Tn-cMET glycopeptide)) VH: QVQLQQSDAELVKPGASVKISCKASGYTFTDHAIHWVKQKPEQGLEWIGYFSPGNGDIKYNEKFKGKATLTADKSSSTAYMQLNSLTSEDSAVYFCKRSLPGPMDCWGQGTSVTVSS VL: NIVMTQSPKSMSMSVGERVTLSCKASENVGIYVSWYQQKPEQSPKLLIYGPSNRYTGVPDRFTGSGSATDFTLTISSVQAEDLADYHCGQSYSYPFTFGSGTKLEIK | 7 nM | 2.83 nM | 
8H3.2B9.2C7 (antibody, V domains shown, Mouse monoclonal antibody from a hybridoma; also called GO-8H3) VH: QVQLQQSDAELVKPGASVKISCKASGYTFTDHAIHWVKQRPEQGLEWIGYFSPGNGDIKYNEKFKDKATLTADKSSSTAYMQLNSLTSEDSAVYFCKRSLPGDFDYWGQGTTLTVSS VL: DVQITQSPSYLAASPGETITINCRASKSVSEYLAWYQEKPGKTNKLLIYSGSTLHSGIPSRFSGSGSGTDFTLTITSLAPEDFAMYFCQQHNEYPFTFGAGTKLELK | 6.26 nM | 7 nM | 
16E12.1D9.1B11 (antibody, V domains shown, Mouse monoclonal antibody from a hybridoma) VH: QVQLQQSDAELVKPGASVKISCKASGYTFTDHAIHWVKQKPEQGLEWIGYFSPGNDDVRYSEKFKGKATLTADKSSSTAYMQLNSLTSEDSAVYFCKRSLPGDFDYWGQGTTLTVSS VL: DVQISQSPSYLAASPGETITINCRASKSINNYLVWYQEKPGKTIKPLIYSGSTLQTGTPSRFSGSGSGTDFSLTISSLEPEDFAMYYCQQHNEYPFTFGAGTKLELK | 1.43 nM | 19.2 nM | 2000 nM
14E9 (antibody, V domains shown, Rabbit monoclonal antibody cloned from B cells of immunised New Zealand White rabbits) VH: QEQLVESGGGLVEPGASLTLTCKASGIDFSSYWICWVRQAPGKGLEWVGCIYTGSGGNTYYATWAKGRFTVSETSSTTVTLRMTSLTAADTATYFCARMGYSAGYIGATYITVGAFNLWGQGTLVTVSS VL: DVVMTQTPASVGAAVGGTVTIKCQASQSISNWLAWYQQKPGQPPKLLIYSASYLESGVPSRFSGSGSGTEFTLTISDLECADAATYYCQCTYGSSGDSGSWDFGGGTEVVVKG |  | 1.5 nM | 
39A3 (antibody, V domains shown, Rabbit monoclonal antibody cloned from B cells) VH: QSLEEYGGDLVKPGASLTLTCTASGLDFSGIYWACWVRQAPGKGLEWIACMDNRVTYATWAKGRFTSSKTSSTTVTLQMTSLTAADTATYFCARGGYGGRGLVFNLWGQGTLVTVSS VL: DPVLTQTPPSVSAAVGGTVTIKCQSSQSVYNNNELSWYQQKPGQPPKLLIYDASTLASGVPSRFKGSGSGTQFTLTISGVQCDDAATYYCQGIYYIGDWYSAFGGGTEVVVKG |  | 52 nM | 
